Measured values taken from paper PMC3936774.

Experiments:
Experiment in all cases: fluorescence polarization
Sa Hfq WT = Sa Hfq WT (Staphylococcus aureus, UniProt A0A0H3JV59 1-77)
Ec Hfq K31W = Ec Hfq K31W (Escherichia coli, UniProt P0A6X3 1-102, K31W)
Ec Hfq R17W = Ec Hfq R17W (Escherichia coli, UniProt P0A6X3 1-102, R17W)
Ec Hfq F39W = Ec Hfq F39W (Escherichia coli, UniProt P0A6X3 1-102, F39W)
Sa Hfq F25W = Sa Hfq F25W (Staphylococcus aureus, UniProt A0A0H3JV59 1-77, F25W)
Hfq WT = Hfq WT (Escherichia coli, UniProt P0A6X3 1-102)
Sa Hfq Q31W = Sa Hfq Q31W (Staphylococcus aureus, UniProt A0A0H3JV59 1-77, Q31W)
Ec Hfq Y83W = Ec Hfq Y83W (Escherichia coli, UniProt P0A6X3 1-102, Y83W)
Ec Hfq Q33W = Ec Hfq Q33W (Escherichia coli, UniProt P0A6X3 1-102, Q33W)
Ec Hfq F11W = Ec Hfq F11W (Escherichia coli, UniProt P0A6X3 1-102, F11W)
Ec Hfq Y25W = Ec Hfq Y25W (Escherichia coli, UniProt P0A6X3 1-102, Y25W)
Ec Hfq G77W = Ec Hfq G77W (Escherichia coli, UniProt P0A6X3 1-102, G77W)
Ec Hfq Q95W = Ec Hfq Q95W (Escherichia coli, UniProt P0A6X3 1-102, Q95W)

UUUUUU (ssRNA) [U6 (fluorescein)]
binding result (Sa Hfq WT): binds | Kd (Ec Hfq K31W): 1120 ± 73 nM | Kd (Ec Hfq R17W): 1600 ± 80 nM | Kd (Ec Hfq F39W): 2000 ± 400 nM | Kd (Sa Hfq F25W): 41.9 ± 25.1 nM | Kd (Hfq WT): 766 ± 73.7 nM | Kd (Sa Hfq Q31W): 114 ± 23.2 nM | Kd (Ec Hfq Y83W): 778 ± 254 nM | Kd (Ec Hfq Q33W): 405 ± 182 nM | Kd (Ec Hfq F11W): 503 ± 55.5 nM | Kd (Ec Hfq Y25W): 837 ± 62.5 nM | Kd (Ec Hfq G77W): 380 ± 93.2 nM | Kd (Ec Hfq Q95W): 848 ± 289 nM
